Experimental data from the supplement of paper PMC9112550, “Optimization of the antimicrobial peptide Bac7 by deep mutational scanning” (BMC Biology, 2022).

system: Escherichia coli TOP10; experiment: shrunken log2 fold change of peptide-encoding DNA abundance (4.5 h post-induction vs induction); higher = less antimicrobial activity (less host growth inhibition); conditions: time post-induction: 4.5 h; library: site-saturation at positions 5, 18, 19, 20
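Note: peptides expressed intracellularly from a pBAD plasmid library in pooled LB shake-flask culture, induced with 0.3% L-arabinose, DNA abundance read by NGS, three biological replicates, DESeq2 with apeglm shrinkage.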

Row | Sequence | shrunken log2 fold change
1 | RRIRDRPPRLPRPRPRPPVTPRP | -0.0696
2 | RRIRDRPPRLPRPRPRPPWEPRP | 0.0453
3 | RRIRDRPPRLPRPRPRPQDIPRP | -0.00598
4 | RRIRDRPPRLPRPRPRPQGEPRP | -0.0304
5 | RRIRDRPPRLPRPRPRPQGQPRP | 0.000653
6 | RRIRDRPPRLPRPRPRPQGWPRP | 0.693
7 | RRIRDRPPRLPRPRPRPQHHPRP | -0.299
8 | RRIRDRPPRLPRPRPRPQHYPRP | -0.856
9 | RRIRDRPPRLPRPRPRPQILPRP | 0.132
10 | RRIRDRPPRLPRPRPRPQITPRP | -0.0201
11 | RRIRDRPPRLPRPRPRPQKRPRP | -0.00561
12 | RRIRDRPPRLPRPRPRPQMMPRP | -0.211
13 | RRIRDRPPRLPRPRPRPQMPPRP | -0.486
14 | RRIRDRPPRLPRPRPRPQNQPRP | -0.0268
15 | RRIRDRPPRLPRPRPRPQPEPRP | 0.106
16 | RRIRDRPPRLPRPRPRPQPPPRP | 0.424
17 | RRIRDRPPRLPRPRPRPQPYPRP | -0.651
18 | RRIRDRPPRLPRPRPRPQRTPRP | 0.0905
19 | RRIRDRPPRLPRPRPRPQSEPRP | 0.0514
20 | RRIRDRPPRLPRPRPRPQSSPRP | 0.0176
21 | RRIRDRPPRLPRPRPRPQSTPRP | -0.466
22 | RRIRDRPPRLPRPRPRPQVDPRP | -0.0156
23 | RRIRDRPPRLPRPRPRPQVKPRP | -0.0431
24 | RRIRDRPPRLPRPRPRPQWIPRP | -0.222
25 | RRIRDRPPRLPRPRPRPQYDPRP | -0.0265

Row | Sequence | shrunken log2 fold change
26 | RRIRDRPPRLPRPRPRPQYGPRP | -0.414
27 | RRIRDRPPRLPRPRPRPRALPRP | 0.226
28 | RRIRDRPPRLPRPRPRPRAQPRP | 0.457
29 | RRIRDRPPRLPRPRPRPRCSPRP | -0.0967
30 | RRIRDRPPRLPRPRPRPREHPRP | -0.118
31 | RRIRDRPPRLPRPRPRPRHKPRP | 0.227
32 | RRIRDRPPRLPRPRPRPRHSPRP | -0.043
33 | RRIRDRPPRLPRPRPRPRIPPRP | -0.108
34 | RRIRDRPPRLPRPRPRPRKLPRP | 0.0892
35 | RRIRDRPPRLPRPRPRPRLTPRP | 0.41
36 | RRIRDRPPRLPRPRPRPRNWPRP | 0.615
37 | RRIRDRPPRLPRPRPRPRPHPRP | 0.465
38 | RRIRDRPPRLPRPRPRPRQGPRP | 0.0779
39 | RRIRDRPPRLPRPRPRPRRDPRP | 0.492
40 | RRIRDRPPRLPRPRPRPRSGPRP | 0.276
41 | RRIRDRPPRLPRPRPRPRTEPRP | 0.0904
42 | RRIRDRPPRLPRPRPRPRTQPRP | 0.168
43 | RRIRDRPPRLPRPRPRPRYGPRP | -0.0472
44 | RRIRDRPPRLPRPRPRPRYNPRP | -0.513
45 | RRIRDRPPRLPRPRPRPSACPRP | 0.294
46 | RRIRDRPPRLPRPRPRPSCAPRP | -0.0293
47 | RRIRDRPPRLPRPRPRPSCWPRP | 0.585
48 | RRIRDRPPRLPRPRPRPSDQPRP | 0.204
49 | RRIRDRPPRLPRPRPRPSDTPRP | -0.343
50 | RRIRDRPPRLPRPRPRPSEAPRP | 0.0437

Row | Sequence | shrunken log2 fold change
51 | RRIRDRPPRLPRPRPRPSEVPRP | 0.561
52 | RRIRDRPPRLPRPRPRPSFTPRP | -0.404
53 | RRIRDRPPRLPRPRPRPSFWPRP | 0.585
54 | RRIRDRPPRLPRPRPRPSFYPRP | -0.128
55 | RRIRDRPPRLPRPRPRPSHGPRP | -0.0107
56 | RRIRDRPPRLPRPRPRPSHNPRP | -0.314
57 | RRIRDRPPRLPRPRPRPSKMPRP | -0.0126
58 | RRIRDRPPRLPRPRPRPSKWPRP | -0.196
59 | RRIRDRPPRLPRPRPRPSKYPRP | -0.455
60 | RRIRDRPPRLPRPRPRPSMFPRP | -0.144
61 | RRIRDRPPRLPRPRPRPSNNPRP | -0.487
62 | RRIRDRPPRLPRPRPRPSNQPRP | -0.315
63 | RRIRDRPPRLPRPRPRPSPFPRP | -0.0929
64 | RRIRDRPPRLPRPRPRPSPWPRP | 0.188
65 | RRIRDRPPRLPRPRPRPSQDPRP | -0.0683
66 | RRIRDRPPRLPRPRPRPSQYPRP | -0.697
67 | RRIRDRPPRLPRPRPRPSRNPRP | 0.326
68 | RRIRDRPPRLPRPRPRPSRPPRP | 0.452
69 | RRIRDRPPRLPRPRPRPSSDPRP | 0.412
70 | RRIRDRPPRLPRPRPRPSSQPRP | -0.0971
71 | RRIRDRPPRLPRPRPRPSSRPRP | -0.0968
72 | RRIRDRPPRLPRPRPRPSSSPRP | 0.135
73 | RRIRDRPPRLPRPRPRPSTEPRP | 0.301
74 | RRIRDRPPRLPRPRPRPSTNPRP | -0.16
75 | RRIRDRPPRLPRPRPRPSTRPRP | 0.152
